Experimental data reported in patent US5955329.

How the values were obtained:
[1] = molecular target: California bay (Umbellularia californica) C12 preferring acyl-ACP thioesterase, wild type, mature protein from pCGN3823 (California bay (Umbellularia californica)); assay: inhibition of 14:0-ACP thioesterase activity; 5 µM cold 12:0-ACP against 5 µM 14C labeled 14:0-ACP as competitor
[2] = molecular target: bay thioesterase triple mutant M197R/R199H/T231K (California bay (Umbellularia californica)); assay: as above
[3] = molecular target: California bay (Umbellularia californica) C12 preferring acyl-ACP thioesterase, wild type, mature protein from pCGN3823 (California bay (Umbellularia californica)); assay: inhibition of 14:0-ACP thioesterase activity; 25 µM cold 12:0-ACP against 5 µM 14C labeled 14:0-ACP as competitor
[4] = molecular target: bay thioesterase triple mutant M197R/R199H/T231K (California bay (Umbellularia californica)); assay: as above
[5] = molecular target: California bay (Umbellularia californica) C12 preferring acyl-ACP thioesterase, wild type, mature protein from pCGN3823 (California bay (Umbellularia californica)); assay: inhibition kinetics of thioesterase activity; slope inhibition constant of 12:0-ACP with 14:0-ACP as varied substrate
[6] = molecular target: bay thioesterase triple mutant M197R/R199H/T231K (California bay (Umbellularia californica)); assay: as above
16:0 acyl-ACP [7] = molecular target: 16:0 acyl-ACP
18:0 acyl-ACP [8] = molecular target: 18:0 acyl-ACP
18:0 acyl-ACP [9] = molecular target: 18:0 acyl-ACP; remark: listed apart in the source
16:0 acyl-ACP [10] = molecular target: 16:0 acyl-ACP; remark: listed apart in the source
14:0-ACP [11] = molecular target: 14:0-ACP
12:0-ACP [12] = molecular target: 12:0-ACP
14:0-ACP [13] = molecular target: 14:0-ACP; remark: listed apart in the source
12:0-ACP [14] = molecular target: 12:0-ACP; remark: listed apart in the source
14:0-ACP [15] = molecular target: 14:0-ACP; remark: listed apart in the source
12:0-ACP [16] = molecular target: 12:0-ACP; remark: listed apart in the source
[17] = molecular target: acyl-ACP substrates (chain length not stated for this assay)

12:0-ACP
Inhibition (%) [1]: 53%
Inhibition (%) [2]: 48%
Inhibition (%) [3]: 78%
Inhibition (%) [4]: 76%
Ki [5]: 10.2 µM
Ki [6]: 11.6 µM

mangosteen (Garcinia mangifera) Class I acyl-ACP thioesterase GarmFatA1, wild type (enzyme)
Acyl-ACP Thioesterase activity (cpm/min) (16:0 acyl-ACP [7]): 4370 cpm/min
Acyl-ACP Thioesterase activity (cpm/min) (18:0 acyl-ACP [8]): 23900 cpm/min
Acyl-ACP Thioesterase activity (cpm/min) (18:1 acyl-ACP): 87400 cpm/min

mangosteen GarmFatA1 mutant D261K (enzyme)
thioesterase activity, preference 18:0/18:1 (% (18:0/18:1)) (18:0 acyl-ACP [9]): 35

Cuphea palustris Class II acyl-ACP thioesterase CpFatB2 (MCT34), mature region as lacZ fusion protein (MCT34LZ) (enzyme)
acyl-ACP thioesterase activity (% of the C14-ACP activity) (16:0 acyl-ACP [10]): 30

Cuphea palustris Class II acyl-ACP thioesterase CpFatB1 (MCT29), mature region as lacZ fusion protein (MCT29LZ) (enzyme)
acyl-ACP thioesterase activity (% of the C8-ACP activity) (14:0-ACP [11]): 10

B1: California bay (Umbellularia californica) C12 preferring acyl-ACP thioesterase, wild type, mature protein from pCGN3823 (enzyme)
chain: LEWKPKPKLPQLLDDHFGLHGLVFRRTFAIRSYEVGPDRSTSILAVMNHMQEATLNHAKSVGILGDGFGTTLEMSKRDLMWVVRRTHVAVERYPTWGDTVEVECWIGASGNNGMRRDFLVRDCKTGEILTRCTSLSVLMNTRTRRLSTIPDEVRGEIGPAFIDNVAVKDDEIKKLQKLNDSTADYIQGGLTPRWNDLDVNQHVNNLKYVAWVFETVPDSIFESHHISSFTLEYRRECTRDSVLRSLTTVSGGSSEAGLVCDHLLQLEGGSEVLRARTEWRPKLTDSFRGISVIPAEPRV
Km,app (12:0-ACP [12]): 1.9 µM
Km,app (14:0-ACP [13]): 6.4 µM

B2: bay thioesterase mutant R327Q (enzyme)
chain: LEWKPKPKLPQLLDDHFGLHGLVFRRTFAIRSYEVGPDRSTSILAVMNHMQEATLNHAKSVGILGDGFGTTLEMSKRDLMWVVRRTHVAVERYPTWGDTVEVECWIGASGNNGMRRDFLVRDCKTGEILTRCTSLSVLMNTRTRRLSTIPDEVRGEIGPAFIDNVAVKDDEIKKLQKLNDSTADYIQGGLTPRWNDLDVNQHVNNLKYVAWVFETVPDSIFESHHISSFTLEYRRECTRDSVLQSLTTVSGGSSEAGLVCDHLLQLEGGSEVLRARTEWRPKLTDSFRGISVIPAEPRV
thioesterase specific activity (fold decrease) (12:0-ACP [14]): 100
thioesterase specific activity (fold decrease) (14:0-ACP [15]): 30

B3: bay thioesterase triple mutant M197R/R199H/T231K (enzyme)
chain: LEWKPKPKLPQLLDDHFGLHGLVFRRTFAIRSYEVGPDRSTSILAVMNHMQEATLNHAKSVGILGDGFGTTLEMSKRDLMWVVRRTHVAVERYPTWGDTVEVECWIGASGNNGRRHDFLVRDCKTGEILTRCTSLSVLMNTRTRRLSKIPDEVRGEIGPAFIDNVAVKDDEIKKLQKLNDSTADYIQGGLTPRWNDLDVNQHVNNLKYVAWVFETVPDSIFESHHISSFTLEYRRECTRDSVLRSLTTVSGGSSEAGLVCDHLLQLEGGSEVLRARTEWRPKLTDSFRGISVIPAEPRV
Km,app (14:0-ACP [13]): 2.3 µM

B4: bay thioesterase mutant R322M/R327Q (enzyme)
chain: LEWKPKPKLPQLLDDHFGLHGLVFRRTFAIRSYEVGPDRSTSILAVMNHMQEATLNHAKSVGILGDGFGTTLEMSKRDLMWVVRRTHVAVERYPTWGDTVEVECWIGASGNNGMRRDFLVRDCKTGEILTRCTSLSVLMNTRTRRLSTIPDEVRGEIGPAFIDNVAVKDDEIKKLQKLNDSTADYIQGGLTPRWNDLDVNQHVNNLKYVAWVFETVPDSIFESHHISSFTLEYRRECTMDSVLQSLTTVSGGSSEAGLVCDHLLQLEGGSEVLRARTEWRPKLTDSFRGISVIPAEPRV
thioesterase specific activity (fold decrease) (12:0-ACP [14]): 100
thioesterase specific activity (fold decrease) (14:0-ACP [15]): 30

B5: bay thioesterase mutant M197R/R199H (enzyme)
chain: LEWKPKPKLPQLLDDHFGLHGLVFRRTFAIRSYEVGPDRSTSILAVMNHMQEATLNHAKSVGILGDGFGTTLEMSKRDLMWVVRRTHVAVERYPTWGDTVEVECWIGASGNNGRRHDFLVRDCKTGEILTRCTSLSVLMNTRTRRLSTIPDEVRGEIGPAFIDNVAVKDDEIKKLQKLNDSTADYIQGGLTPRWNDLDVNQHVNNLKYVAWVFETVPDSIFESHHISSFTLEYRRECTRDSVLRSLTTVSGGSSEAGLVCDHLLQLEGGSEVLRARTEWRPKLTDSFRGISVIPAEPRV
thioesterase activity (12:0-ACP [16]): 7 fold reduced

B6: bay thioesterase mutant C320S (enzyme)
chain: LEWKPKPKLPQLLDDHFGLHGLVFRRTFAIRSYEVGPDRSTSILAVMNHMQEATLNHAKSVGILGDGFGTTLEMSKRDLMWVVRRTHVAVERYPTWGDTVEVECWIGASGNNGMRRDFLVRDCKTGEILTRCTSLSVLMNTRTRRLSTIPDEVRGEIGPAFIDNVAVKDDEIKKLQKLNDSTADYIQGGLTPRWNDLDVNQHVNNLKYVAWVFETVPDSIFESHHISSFTLEYRRESTRDSVLRSLTTVSGGSSEAGLVCDHLLQLEGGSEVLRARTEWRPKLTDSFRGISVIPAEPRV
thioesterase activity (% of the wild-type activity) [17]: 80
